In the supplement of paper PMC12764529:
± gives the half width of the 95% confidence interval.

Experiments:
[1] = folding stability dG unfold from trypsin proteolysis; higher = more stable
Method in brief: (§1)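 Designed mini-proteins with no cysteine and under 80 residues were kept only if AlphaFold2 dimer inter-PAE was above 15. In a PA-tagged cDNA display construct, they were digested with trypsin and chymotrypsin and then sequenced. K50 was inferred by Bayesian fitting of counts, and unfolding free energy was derived per protease or combined against a sequence-predicted unfolded-state K50 and a shared folded-state K50.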

[2] = folding stability dG unfold from chymotrypsin proteolysis; higher = more stable
Method in brief: as §1

[3] = folding stability dG unfold (combined trypsin and chymotrypsin); higher = more stable
Method in brief: as §1

Row | Sequence | folding stability dG unfold [1] [kJ/mol] | folding stability dG unfold [2] [kJ/mol] | folding stability dG unfold [3] [kJ/mol]
1 | SAGGSFGIEIEFHGNGFVIEMFNPETDTINTMRFKFDPDGQFTEMEMETIPIPPPPPPEKDENGKESAGGSA [r2_375_TrROS] | 9.49 ± 0.669 | 13.2 ± 0.502 | 12.3 ± 0.795
2 | SAGGKKLLIKVRIEVFNENGELVREEEIEIEVEGMSEEELEELARELLAKLPPENVKIEVEIVELEESAGGS [r16_774_TrROS_Hall] | 18.1 ± 3.93 | 18 ± 1.55 | 17.4 ± 1.46
3 | SMPPEDPGELTLVVPDTRNVTVTLPVPVPPEARVLVTFSDGRRVEAPAGTELTFTIPPGRPYVIRVEVYASA [r9_79_TrMRF] | 5.01 ± 0.113 | 7.78 ± 0.356 | 6.69 ± 0.318
4 | SMTIELTVPSPEELLAALKALADAGIKGAKIRITVTNPDGEEQEIEVDSIEDLEALIESGPVTVRVEIEPSA [r9_589_TrROS_Hall] | 14.9 ± 0.544 | 10.5 ± 0.351 | 12.8 ± 0.586
5 | SAGGSAGGSAGMTTLTVTVPAPPDALTPEDVVALLRPEYPDATITVTREGDTLVVTVTVASAGGSAGGSAGG [r11_7_JUSTAS] | 13.9 ± 0.243 | 9.98 ± 0.138 | 11.8 ± 0.197
6 | SAGGSAGGSAGGSKDITITHEHNPNGWYRVKIRFPDNGKKIEIWVPAGRSVEEALDWLFSAGGSAGGSAGGS [r4_393_TrROS] | 12.8 ± 0.502 | 13.4 ± 0.159 | 13.6 ± 0.502
7 | SAGGSAGGSAGGSMITIEVTTPTEKHTIEVPEDEVPEEELIERAKKLFPDVEKITILKESAGGSAGGSAGGS [r4_235_JUSTAS] | 2.72 ± 0.155 | 2.56 ± 0.247 | 2.66 ± 0.335
8 | SAGGSAGGSAGGGSSGVSYGSVPIVIRDPSGNVVSTLTLRVYPDGTVVLEFPDGSLLLLSAGGSAGGSAGGS [r10_972_JUSTAS] | 14.1 ± 0.339 | 17.2 ± 0.188 | 16.2 ± 0.364
9 | SAGGSSMYKTTTTPLSTFPVRDENGNFLEETKFEKTTVTYPDGSTVTVLKIEVGGKTFTLEVTPTPSAGGSA [r2_158_JUSTAS] | 0.0607 ± 0.314 | 3.98 ± 0.753 | 2.37 ± 0.753
10 | SAGGSAGGSAGGMEIIEKEETLDEETLKKLEEEGVPKSEATVKVTEVIYKEEYPEEGLKSAGGSAGGSAGGS [r10_1149_JUSTAS] | 1.5 ± 0.301 | -2.9 ± 1.17 | -0.574 ± 1.42
11 | SAGGPVIEVESLEELKKALELLKEGKEVVIRVRVRRTETLPDGRKRVEEREVVYRATVEDGKLTIEPLSAGG [r13_835_TrROS_Hall] | 12.3 ± 0.385 | 16.4 ± 0.544 | 14.9 ± 0.502
12 | SAGGSGKKVKIKINIVVVFPPGDPDLAKEIAKWFARTIARELQAQGFEDIKDIEIRVHVIPPNQPGFSAGGS [r16_289_TrROS] | 13 ± 0.393 | 15.08 ± 0.146 | 14.4 ± 0.502
13 | SAGGMKLEIYLRFKTEEEAKKAVEELIRKLLEELGLEVEVEVVYDEETKEVYVKVTVTFPELPEEELSAGGS [r8_17_TrROS_Hall] | 15.4 ± 0.795 | 19.6 ± 1.21 | 18.4 ± 1.63
14 | SAGGSAMPEDTPFVVTKTTEYRLPDGSRVTFEPVPETGKTLVTFTPPDGSSERVWLTPEEAEKLLASAGGSA [r15_2_JUSTAS] | 4.65 ± 0.0837 | 5.43 ± 0.418 | 5.12 ± 0.46
15 | SAPNIEIDYNKDNGMITIRLPGTGVEYMIPMPDGQLMAIDIEVKPDPDGKRKISIEIYFPDGKEHEFEISAG [r14_675_TrROS] | 9.18 ± 1.21 | 10.2 ± 0.711 | 9.63 ± 1.63
16 | SAGGSAGGSAMPPLISTTPILGEEPGKRLVREIVTLPDGSLIELTYDEDGNVIESKKYIVGKSAGGSAGGSA [r18_467_JUSTAS] | 0.551 ± 0.172 | 5.09 ± 0.155 | 3.93 ± 0.205
17 | SAGGSAGRVRVELELEIVVDTPEEARALAEELARRFPSIVRVEVEVRRRPDGRLVVRVRLEVELPPSAGGSA [r15_726_TrROS_Hall] | 13.8 ± 0.255 | 13.9 ± 0.322 | 13.8 ± 0.418
